Results taken from PMC5551578 (The Journal of Experimental Medicine, 2017).

Biological target: T1, tetanus toxoid (Clostridium tetani, production strain …, UniProt P04958, biotin (biotinylated antigen))
T1 construct: also called TT
Test: BLI

T1 sequence (P04958 whole entry): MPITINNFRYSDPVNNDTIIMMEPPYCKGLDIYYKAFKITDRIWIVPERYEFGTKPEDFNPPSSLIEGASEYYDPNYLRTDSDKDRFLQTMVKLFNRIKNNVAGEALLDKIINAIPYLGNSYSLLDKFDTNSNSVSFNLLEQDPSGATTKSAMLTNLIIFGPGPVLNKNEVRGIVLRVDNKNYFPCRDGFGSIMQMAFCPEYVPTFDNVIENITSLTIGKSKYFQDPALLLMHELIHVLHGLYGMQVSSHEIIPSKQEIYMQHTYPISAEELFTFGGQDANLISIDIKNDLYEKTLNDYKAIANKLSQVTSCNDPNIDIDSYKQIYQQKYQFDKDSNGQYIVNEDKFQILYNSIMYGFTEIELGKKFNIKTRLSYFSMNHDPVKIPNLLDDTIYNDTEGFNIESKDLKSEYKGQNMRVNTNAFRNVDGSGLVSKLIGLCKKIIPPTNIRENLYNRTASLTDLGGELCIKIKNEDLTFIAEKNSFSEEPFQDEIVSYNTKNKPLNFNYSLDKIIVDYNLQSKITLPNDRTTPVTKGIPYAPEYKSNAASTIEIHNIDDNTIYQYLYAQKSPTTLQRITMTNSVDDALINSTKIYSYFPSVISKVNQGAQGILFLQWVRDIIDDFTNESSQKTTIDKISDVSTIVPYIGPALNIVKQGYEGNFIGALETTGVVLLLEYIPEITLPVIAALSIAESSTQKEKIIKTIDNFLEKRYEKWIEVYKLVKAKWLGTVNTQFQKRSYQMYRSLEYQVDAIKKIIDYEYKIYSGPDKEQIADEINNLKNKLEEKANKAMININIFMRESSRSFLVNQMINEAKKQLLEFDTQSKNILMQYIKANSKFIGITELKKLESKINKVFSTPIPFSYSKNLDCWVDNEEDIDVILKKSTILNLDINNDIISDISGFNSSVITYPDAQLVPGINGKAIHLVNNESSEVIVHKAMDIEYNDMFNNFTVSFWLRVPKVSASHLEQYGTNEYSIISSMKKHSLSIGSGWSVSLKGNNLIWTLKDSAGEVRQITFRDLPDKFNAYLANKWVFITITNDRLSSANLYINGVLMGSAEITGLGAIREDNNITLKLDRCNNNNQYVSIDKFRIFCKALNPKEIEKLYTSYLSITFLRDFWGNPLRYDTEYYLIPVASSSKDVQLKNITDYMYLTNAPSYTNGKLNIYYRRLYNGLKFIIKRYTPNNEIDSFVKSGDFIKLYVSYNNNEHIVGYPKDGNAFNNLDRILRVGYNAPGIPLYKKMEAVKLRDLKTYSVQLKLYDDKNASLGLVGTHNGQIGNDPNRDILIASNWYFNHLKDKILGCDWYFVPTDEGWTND

Row | Binder | Kd | koff
1 | TT-Ab4 (antibody, V domains shown, IgG1) VH: EVQLVQSGAEMKKPGSSVKVSCRMSGGKFNNYAMSWVRQAPGQGLEWVGGIIPVLGTANYAQKFQDRVAITADKSTNTAYMELSSLRSDDTAVYYCARVWGTVVTQGPSQVQYNHYGMDVWGQGTTVTVSS VL: DIQLTQSPSSLSASVGDRVTITCRATQSISSSLNWYQHKPGKAPNLLISAASNLQSGVPSRFSGSGSRTDFTLTITNLQPEDFATYYCQQSYTTPLTFGGGTKVEIK | 0.0137 nM | 2.27e-06 s⁻¹
2 | TT-Ab10 (antibody, V domains shown, IgG1) VH: EVQLVESGGGLVQPGGSLRVSCGASGFTFANFWMSWVRQAPGKGLEWVANINQDGNERKYVDSVKGRFTISRDNDKNSLYLQMNSLRAEDTAVYFCAREYGSYWRTYYFDDWGQGTLVTVSS VL: DIVMTQSPATLSLSPGERATLSCRASQSVSNYLAWYQQKPGQAPRLLIYDASNRASGTPARFSGSGFGTDFTLTISSLDPEDFAVYYCQQGSNWLTFGGGTKVEIK | 1.59 nM | 0.000243 s⁻¹
3 | TT-Ab12 (antibody, V domains shown, IgG1) VH: QVQLQESGPGLVKPSETLSLTCNVSGASISRYYWAWIRQPPGKGLEWIGYIYDSGTTTYNTSLKSRVTISRDTSKNQFSLNMMSVTAADTAVYYCARARYYYDSTGYFYGWLDPWGQGRLVTVSF VL: DIQMTQSPSTLSASVGDRVTITCRASQSINIWLAWYQQRPGKAPDLLIYKASTLQSGVPSRFSGSGSGTEFTLTISSVQPDDFATYYCQQYKSYSCSFGQGTKVEIN | 1.95 nM | 0.000307 s⁻¹
4 | TT-Ab9 (antibody, V domains shown, IgG1) VH: EVQLVESGGSLVQPGGSLRLSCVGTGFTFNTYWMSWVRQAPGKGLEWVANIKQDGREKHYVDSVMGRFTVSRDNAMNALYLQVNSLRVEDTAVYYCARGMTAWSLGGYQYDYWGQGTQVTVSS VL: DIQMTQSPSSLSASVGDTVTITCRASQGIRSDLGWYQQRPGKAPKLLVYTASTLQTGVPSRFSGSGFGTDFTLTISSLQPEDFATYYCLQNYNYPRTFGQGTKVEIK | 6.64 nM | 0.000919 s⁻¹
5 | TT-Ab7 (antibody, V domains shown, IgG1) VH: EVQLVESGGGWVQPGGSLRLSCAASGFTFNSFGSYGMSWVRQAPGKGLEWVSHISASGAATYYADSVKGRFTISRDNSKNTLLLQMNDLRGEDTATYYCARSVQQYLGLLGYWGQGTLVTVSS VL: QSVLTQSPSASASLGATVKLTCTLSSGHTNYAIAWHQLQPQKAPRYLLKISNDGSHKRGDGIPDRFSGSSSGAERYLTISSLQSEDEAEYYCQTWGAGMGMFGGGTKLTVL | 0.0185 nM | 3.46e-06 s⁻¹
6 | TT-Ab3 (antibody, V domains shown, IgG1) VH: EVQLVQSGAEVKKPGSSVKVSCKVSGGAFNSYAISWVRQAPGQGLEWMGGIIPILRTANYTEKFQGRVTINADKSTNTAYMELSKLRSEDTAVYYCARVWGTTVTKGPSQIKYYYYGMDVWGQGTTVTVSS VL: DIQMTQSPSSLSASVGDRVTISCRASQSISNYLNWYHQKPGKAPKLLIYAASSLQSGVPSRFSGSGSGTDFTLTISSLQPEDFATYYCQQSYSTPLTFGGGTKVEIK | 1.61 nM | 0.00013 s⁻¹
